As a reminder, the stoichiometry N is a count of units in the complex or per binding partner.

The text below walks through data of publication PMC6914368 (Nature, 2019).

Series [1] has as its target EccB3:EccC3:EccD3 subcomplex (Mycobacterium smegmatis) (UniProt A0QQ39). The experiment in a line: SEC.
For series [2], the target named is ESX-3 core complex protomer EccB3:EccC3:EccD3:EccE3 (1:1:2:1), from pMyNT:Mini (Mycobacterium smegmatis) (UniProt A0QQ39). The experiment in a line: cryo-EM structure.
The target of series [3] is ESX-3 core complex protomer EccB3:EccC3:EccD3:EccE3, from pMyNT:ESX-3 (whole gene cluster) (Mycobacterium smegmatis) (UniProt A0QQ39). Put plainly: SEC. (In general: SEC sorts molecules by how far they enter the pores of the column.)
In series [4] the target is T1, EccC3 with C-terminal His-tag (Mycobacterium smegmatis, UniProt A0QQ40 1-1325).
T1 sequence: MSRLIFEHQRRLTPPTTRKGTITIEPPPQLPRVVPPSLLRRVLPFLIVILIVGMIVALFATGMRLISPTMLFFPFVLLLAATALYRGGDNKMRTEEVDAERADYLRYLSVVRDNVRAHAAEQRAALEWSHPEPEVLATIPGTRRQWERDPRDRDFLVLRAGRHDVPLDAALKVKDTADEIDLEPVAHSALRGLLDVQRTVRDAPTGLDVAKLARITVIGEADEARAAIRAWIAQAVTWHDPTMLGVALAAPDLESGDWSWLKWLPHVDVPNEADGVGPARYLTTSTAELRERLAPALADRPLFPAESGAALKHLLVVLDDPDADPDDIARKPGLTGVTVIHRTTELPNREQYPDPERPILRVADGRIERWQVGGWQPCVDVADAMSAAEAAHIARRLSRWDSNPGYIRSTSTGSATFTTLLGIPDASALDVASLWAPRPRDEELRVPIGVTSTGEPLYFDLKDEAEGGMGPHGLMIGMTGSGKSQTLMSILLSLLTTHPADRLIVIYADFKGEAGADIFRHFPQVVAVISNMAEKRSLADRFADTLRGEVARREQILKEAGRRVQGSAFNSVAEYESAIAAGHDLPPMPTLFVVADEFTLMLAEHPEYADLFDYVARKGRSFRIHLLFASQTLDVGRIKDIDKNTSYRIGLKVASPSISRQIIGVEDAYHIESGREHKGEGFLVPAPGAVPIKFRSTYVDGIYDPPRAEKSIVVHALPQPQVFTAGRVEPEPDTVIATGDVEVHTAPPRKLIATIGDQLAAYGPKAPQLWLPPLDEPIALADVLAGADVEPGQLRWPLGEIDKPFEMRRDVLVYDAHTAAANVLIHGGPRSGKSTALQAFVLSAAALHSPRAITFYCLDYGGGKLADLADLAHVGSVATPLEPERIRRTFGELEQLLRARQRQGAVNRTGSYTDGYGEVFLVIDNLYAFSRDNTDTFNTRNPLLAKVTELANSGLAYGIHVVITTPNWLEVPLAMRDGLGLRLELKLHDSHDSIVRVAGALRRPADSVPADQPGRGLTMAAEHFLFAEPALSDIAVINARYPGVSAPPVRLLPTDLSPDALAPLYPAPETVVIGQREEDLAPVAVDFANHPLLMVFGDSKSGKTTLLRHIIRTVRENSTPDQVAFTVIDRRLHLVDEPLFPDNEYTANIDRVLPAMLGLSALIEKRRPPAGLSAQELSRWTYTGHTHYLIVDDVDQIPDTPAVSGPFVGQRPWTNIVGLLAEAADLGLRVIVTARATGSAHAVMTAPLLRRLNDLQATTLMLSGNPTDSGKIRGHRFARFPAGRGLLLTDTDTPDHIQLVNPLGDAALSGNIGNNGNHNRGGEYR
Put plainly: densitometry of SDS-PAGE bands.

The series “cryo-EM structure” deals with the molecule itself. Put plainly: cryo-EM structure.
The series “SEC-MALS” deals with the molecule itself. The experiment in a line: SEC-MALS.

In series [1], “EccB3:EccC3:EccD3 subcomplex (from UniProt A0QQ39;A0QQ40;A0QQ46)” yielded a stoichiometry N of 2.
As to “ESX-3 core complex protomer EccB3:EccC3:EccD3:EccE3 (1:1:2:1), from pMyNT:Mini (from UniProt A0QQ39;A0QQ40;A0QQ46;A0QQ48)”, the stoichiometry N in series [2] was 2.
Molecule “ESX-3 core complex protomer EccB3:EccC3:EccD3:EccE3, from pMyNT:ESX-3 (whole gene cluster) (from UniProt A0QQ39;A0QQ40;A0QQ46;A0QQ48)” yielded a stoichiometry N in series [3] of 2.

B1: EccB3 (natural protein)
chain: MTGPVNPDDRRSFSSRTPVNENPDGVQYRRGFVTRHQVSGWRFVMRRIASGVALHDTRMLVDPLRTQSRAVLTGALILVTGLVGCFIFSLFRPGGVPGNNAILADRSTSALYVRVGEQLHPVLNLTSARLISGSPDNPTMVKTSEIDKFPRGNLLGIPGAPERMVQNAATDAEWTVCDAVGGANPGVTVIAGPLGADGERAAPLPPDHAVLVHSDAEPNPGDWLLWDGKRSPIDLADRAVTDALGLGGQALAPRPIAAGLFNAVPAAPALTAPVIPDAGAAPQFELSLPVPVGAVVVAYDADNTARYYAVLSDGLQPISPVLAAILRNTDSHGFAQPPRLGPDEVARTPMSRGLDTSAYPDNPVTLVEASAHPVTCAHWTKPSDAAESSLSVLSGAVLPLAEGLHTVDLVGAGAGGAANRVALTPGTGYFVQTVGAEPGSPTAGSMFWVSDTGVRYGIDTAEDDKVVAALGLSTSPLPVPWSVLSQFAAGPALSRGDALVAHDAVSTNPNSARMEASR
Consider B1, for which the figures for the “stoichiometry N” value (in series [4]; in the series “cryo-EM structure”) were 1 and 2, respectively.

B2: EccD3 with N-terminal Strep-tag II (natural protein)
chain: MSENTVMPIVRVAVLAAGDDGGRLTEMALPSELPLREILPAVQRIVQPARENDGAADPAAAPNPVRLSLAPIGGAPFSLDATLDTVGVVDGDLLALQAVPSGPPAPRIVEDIADAAVIFSEARRRQWGPTHIARGAALALIGLILVGTGLSVAHRVITGDLLGQFIVSGIALATVIAALAVRNRSAVLATSLAVTALVPVAAAFALGVPGDFGAPNVLLAAAGVAAWSLISMAGSPDDRGIAVFTATAVTGVGVLLVAGAASLWVISSDVIGCALVLLGLIVTVQAAQLSAMWARFPLPVIPAPGDPTPAARPLSVLADLPRRVRVSQAHQTGVIAAGVLLGVAGSVALVSSANASPWAWYIVVAAAAGAALRARVWDSAACKAWLLGHSYLLAVALLVAFVIGDRYQAALWALAALAVLVLVWIVAALNPKIASPDTYSLPMRRMVGFLATGLDASLIPVMALLVGLFSLVLDR
Regarding B2, the “stoichiometry N” value (in “SEC-MALS”; in series [4]) was 2 each time.

B3: EccD3 (untagged, from the ESX-3 gene cluster plasmid pMyNT:ESX-3) (natural protein)
chain: B2 chain
With B3, the “stoichiometry N” value in series [4] was 2.

B4: EccE3 (natural protein)
chain: MTARIALASLFVVAAVLAQPWQTTTQRWVLGVSIAAVIVLLAWWKGMFLTTRIGRALAMVRRNRAEDTVETDAHRATVVLRVDPAAPAQLPVVVGYLDRYGITCDKVRITHRDAGGTRRSWISLTVDAVDNLAALQARSARIPLQDTTEVVGRRLADHLREQGWTVTVVEGVDTPLPVSGKETWRGVADDAGVVAAYRVKVDDRLDEVLAEIGHLPAEETWTALEFTGSPAEPLLTVCAAVRTSDRPAAKAPLAGLTPARGRHRPALAALNPLSTERLDGTAVPLPAVVRTSVKGSVEHEAAQEAGHPA
Take B4: the “stoichiometry N” value in series [4] amounted to 1.
